Experimental data reported in the supplement of paper PMC12042874.
± gives the uncertainty stated by the source.

Assay: amyloid nucleation score (Sup35N fusion, yeast selection) (log enrichment); library NNK3; higher = more nucleation; inactive = no reads after selection
In short: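 Psi-negative yeast expressed Sup35N fused to peptides of 20 random codons. They were induced 24 hours with 100 μM copper sulfate, grown 7 days at 30°C without adenine and uracil, and their plasmid inserts from input and output were Illumina-sequenced. The nucleation score is the DiMSum log enrichment of output over input reads, centred on the mode score of non-aggregating sequences. Sequences with under 100 input reads were excluded.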

Question: Which amyloid nucleation score does the source give for FSYLLYRRNDTCPQALRLRR here?
Answer: inactive

Question: Which amyloid nucleation score does the source give for FSYRPSNCYIR here?
Answer: inactive

Question: With FTEKGGLPC as the substance, how does the amyloid nucleation score read?
Answer: inactive

Question: With FTFGCSLCTMYTANSHFRGC as the substance, how does the amyloid nucleation score read?
Answer: 1.87 ± 0.061

Question: For FTFNSWSSWWNTSSFLIKGQ, which amyloid nucleation score is on record?
Answer: inactive

Question: With FTGAMAFFLWFIQDYWFTGW as the substance, how does the amyloid nucleation score read?
Answer: inactive

Question: Which amyloid nucleation score does the source give for FTHNHK here?
Answer: inactive

Question: With FTIGRYILFVMKDFVFLWFV as the substance, how does the amyloid nucleation score read?
Answer: inactive

Question: With FTPARRLSRLIVFCFG as the substance, how does the amyloid nucleation score read?
Answer: inactive

Question: For FTRNEQP, which amyloid nucleation score is on record?
Answer: inactive

Question: With FTRTREMENCNFLNFYRYMV as the substance, how does the amyloid nucleation score read?
Answer: inactive

Question: Which amyloid nucleation score does the source give for FTSKKLLCLDKPFNIGDCGY here?
Answer: inactive

Question: For FTTRFTFTIP, which amyloid nucleation score is on record?
Answer: 1.24 ± 0.17

Question: With FTYVLTLMSFNGGPRGRYGW as the substance, how does the amyloid nucleation score read?
Answer: 2.66 ± 0.068

Question: For FVCLLCPMYYVHSTMWMSAR, which amyloid nucleation score is on record?
Answer: 2.01 ± 0.057

Question: Which amyloid nucleation score does the source give for FVCLSNIHMGTKTVILAMCL here?
Answer: inactive

Question: For FVEYSSVQYAACNLDRLFLF, which amyloid nucleation score is on record?
Answer: inactive

Question: With FVGHDTELNPHGRYGCLD as the substance, how does the amyloid nucleation score read?
Answer: inactive

Question: With FVGYINILLIADSALGVRIL as the substance, how does the amyloid nucleation score read?
Answer: 1.64 ± 0.076

Question: With FVLICGYFIFIWTVSFNCYW as the substance, how does the amyloid nucleation score read?
Answer: inactive

Question: Which amyloid nucleation score does the source give for FVMGMNAVQRSLSSIYTLCV here?
Answer: inactive

Question: Which amyloid nucleation score does the source give for FVQNDNYKWVWL here?
Answer: inactive

Question: Which amyloid nucleation score does the source give for FVRGTVWKSTGDVMDAVPAT here?
Answer: inactive

Question: For FVSSYNIENV, which amyloid nucleation score is on record?
Answer: inactive

Question: Which amyloid nucleation score does the source give for FVSVLACSDKLGK here?
Answer: inactive

Question: For FVTFGYQWYRRVAGALGCLE, which amyloid nucleation score is on record?
Answer: 0.37 ± 0.57

Question: Which amyloid nucleation score does the source give for FVTYDPYTFIDYFIVSHPRL here?
Answer: 0.61 ± 0.17

Question: Which amyloid nucleation score does the source give for FVVELCVDPTFKLYD here?
Answer: inactive

Question: With FVVGIFYSIQYIECSRVSSY as the substance, how does the amyloid nucleation score read?
Answer: -0.106 ± 0.55

Question: For FVVKYNWRYDLLIPYQMDLI, which amyloid nucleation score is on record?
Answer: inactive

Question: With FVVWCDVTGS as the substance, how does the amyloid nucleation score read?
Answer: inactive

Question: For FVWNERWKIRLYLMSFGRGR, which amyloid nucleation score is on record?
Answer: 2.35 ± 0.065

Question: With FVYFFCVSLTSSSPSDCDWP as the substance, how does the amyloid nucleation score read?
Answer: 1.6 ± 0.069

Question: With FVYSMKSCSYRDLGLNSYLL as the substance, how does the amyloid nucleation score read?
Answer: inactive

Question: For FWAYERVGSRSAFGWLGREA, which amyloid nucleation score is on record?
Answer: 0.705 ± 0.21

Question: With FWFFTSMLVSVCLMRASRCL as the substance, how does the amyloid nucleation score read?
Answer: inactive

Question: Which amyloid nucleation score does the source give for FWFFYNICRMLKSVT here?
Answer: inactive

Question: With FWHNSG as the substance, how does the amyloid nucleation score read?
Answer: inactive

Question: With FWKACTCI as the substance, how does the amyloid nucleation score read?
Answer: inactive

Question: Which amyloid nucleation score does the source give for FWKWL here?
Answer: inactive

Question: Which amyloid nucleation score does the source give for FWLLVFPGNMMSS here?
Answer: 0.818 ± 0.14

Question: Which amyloid nucleation score does the source give for FWSGIWSNTFRFYGAVIWPG here?
Answer: inactive

Question: Which amyloid nucleation score does the source give for FYAYVSVDTVCSVAICLICT here?
Answer: inactive

Question: Which amyloid nucleation score does the source give for FYFWLASLCSSDFSFYKVKL here?
Answer: inactive

Question: For FYGLYFYHSVH, which amyloid nucleation score is on record?
Answer: inactive

Question: With FYHDMIWTILLDYTRRFHKL as the substance, how does the amyloid nucleation score read?
Answer: inactive

Question: With FYIICWWVLDQDFCAWL as the substance, how does the amyloid nucleation score read?
Answer: inactive

Question: With FYLIRKTIFLGSISLVWYGV as the substance, how does the amyloid nucleation score read?
Answer: inactive

Question: With FYMAKRICKVQHGVNGPYAK as the substance, how does the amyloid nucleation score read?
Answer: inactive

Question: With FYMFDSRLLFWRYCCWKFSY as the substance, how does the amyloid nucleation score read?
Answer: inactive

Question: Which amyloid nucleation score does the source give for FYPKQYQKLSYVWWY here?
Answer: inactive

Question: Which amyloid nucleation score does the source give for FYRSLGMYRDWTMSIFGKYL here?
Answer: inactive

Question: With FYSFCQSKSLMTFSGDLPPS as the substance, how does the amyloid nucleation score read?
Answer: inactive

Question: For FYSLIMHLKRLSYVA, which amyloid nucleation score is on record?
Answer: inactive

Question: With FYVNCFSL as the substance, how does the amyloid nucleation score read?
Answer: 1.01 ± 0.11

Question: With FYVTMTAASFPDFRHCVVND as the substance, how does the amyloid nucleation score read?
Answer: 0.01 ± 0.57

Question: With FYYPRS as the substance, how does the amyloid nucleation score read?
Answer: inactive

Question: With GACVKDSLVAGNSSMTSAGL as the substance, how does the amyloid nucleation score read?
Answer: 3.9 ± 0.061

Question: Which amyloid nucleation score does the source give for GAFMLEGAIRRFS here?
Answer: inactive

Question: Which amyloid nucleation score does the source give for GAGPGLITMSNSN here?
Answer: inactive

Question: Which amyloid nucleation score does the source give for GASSIFLIVRSDGSYFSPD here?
Answer: inactive

Question: For GASVGFEVHCNFVVNLNVQH, which amyloid nucleation score is on record?
Answer: 2.18 ± 0.066

Question: For GCDILQFRHCF, which amyloid nucleation score is on record?
Answer: inactive

Question: With GCFNGNSYRSLPFWFMSTCL as the substance, how does the amyloid nucleation score read?
Answer: inactive

Question: For GCGVC, which amyloid nucleation score is on record?
Answer: -0.609 ± 0.98

Question: With GCIRLGLNSVGVNNIVA as the substance, how does the amyloid nucleation score read?
Answer: inactive

Question: Which amyloid nucleation score does the source give for GCLYGSSSV here?
Answer: inactive

Question: With GCTFRNWIWWLHRFDKMR as the substance, how does the amyloid nucleation score read?
Answer: 0.861 ± 0.15

Question: With GCVAAMS as the substance, how does the amyloid nucleation score read?
Answer: inactive

Question: With GDLVSIWAMRFELRKSKEMR as the substance, how does the amyloid nucleation score read?
Answer: inactive

Question: Which amyloid nucleation score does the source give for GDNICQNVFTDGKVDAFFLT here?
Answer: inactive

Question: For GDYGCFSLMQTHTEEEILMR, which amyloid nucleation score is on record?
Answer: inactive

Question: Which amyloid nucleation score does the source give for GDYSWSM here?
Answer: 0.167 ± 0.42

Question: Which amyloid nucleation score does the source give for GECWAPVYDFWI here?
Answer: inactive

Question: For GERWVQKIQ, which amyloid nucleation score is on record?
Answer: inactive

Question: Which amyloid nucleation score does the source give for GFCKIAAMGFAYHDGAFDGF here?
Answer: inactive

Question: With GFCLQSNLCIIGRSFWTFLI as the substance, how does the amyloid nucleation score read?
Answer: 0.629 ± 0.55

Question: Which amyloid nucleation score does the source give for GFDMRVGDRMYRDYGMMVGA here?
Answer: inactive

Question: Which amyloid nucleation score does the source give for GFFYRDDARNFVLVTNSWRL here?
Answer: inactive

Question: For GFIGK, which amyloid nucleation score is on record?
Answer: inactive

Question: For GFKDLWYCDGF, which amyloid nucleation score is on record?
Answer: inactive

Question: With GFRKWKLIVD as the substance, how does the amyloid nucleation score read?
Answer: inactive

Question: Which amyloid nucleation score does the source give for GFSHANGHGTEKDFSSLIPV here?
Answer: inactive

Question: With GFYSLISQQQFVLNFNGYKM as the substance, how does the amyloid nucleation score read?
Answer: 2.34 ± 0.086

Question: With GFYVCPMGCNEYRVLICSDS as the substance, how does the amyloid nucleation score read?
Answer: inactive

Question: For GGENLTFLRSAFCSNWA, which amyloid nucleation score is on record?
Answer: inactive

Question: For GGLSL, which amyloid nucleation score is on record?
Answer: inactive

Question: For GGLSS, which amyloid nucleation score is on record?
Answer: -0.809 ± 0.71

Question: For GGMGSLCSTREGMDWCPRGY, which amyloid nucleation score is on record?
Answer: inactive

Question: For GGRVNWM, which amyloid nucleation score is on record?
Answer: inactive

Question: For GGSIVVCLRHHRDLSMHSWD, which amyloid nucleation score is on record?
Answer: inactive

Question: Which amyloid nucleation score does the source give for GGTNVFGAWSHNQRILCQKG here?
Answer: inactive

Question: With GGVHDSLNIYGFRYGLRKGV as the substance, how does the amyloid nucleation score read?
Answer: inactive

Question: For GGWLLSEGLC, which amyloid nucleation score is on record?
Answer: inactive

Question: For GGYVRSNCGRGVVPMVTRMA, which amyloid nucleation score is on record?
Answer: inactive

Question: For GHCKCGPVGPNKRTAR, which amyloid nucleation score is on record?
Answer: inactive

Question: For GHIWFIAEVNSICYLLFLVS, which amyloid nucleation score is on record?
Answer: inactive

Question: With GHKVSSIDNHFPILSSEAFK as the substance, how does the amyloid nucleation score read?
Answer: inactive

Question: With GHSSSNMGNVHFKFLC as the substance, how does the amyloid nucleation score read?
Answer: inactive

Question: For GIFIKFGYR, which amyloid nucleation score is on record?
Answer: inactive

Question: With GIFSRPFRAGRGRVIHNGPD as the substance, how does the amyloid nucleation score read?
Answer: inactive

Question: With GIFTLFYYVMMKLIFDFFTV as the substance, how does the amyloid nucleation score read?
Answer: inactive

Question: With GIFVSMTLFILKILFARYVR as the substance, how does the amyloid nucleation score read?
Answer: inactive

Question: For GIIVLLVPETQCRCFGDLIR, which amyloid nucleation score is on record?
Answer: inactive

Question: With GILRIWNDLSLRFDKIWWG as the substance, how does the amyloid nucleation score read?
Answer: inactive

Question: Which amyloid nucleation score does the source give for GILYGPCSFWDFVRLEMSRF here?
Answer: -0.504 ± 0.8

Question: With GIMDLDEGLET as the substance, how does the amyloid nucleation score read?
Answer: inactive

Question: For GISCNLYVINGICSWYFLVT, which amyloid nucleation score is on record?
Answer: 1.56 ± 0.07

Question: Which amyloid nucleation score does the source give for GISPQC here?
Answer: inactive

Question: With GISRLFVGMKKAVTWSAKER as the substance, how does the amyloid nucleation score read?
Answer: inactive

Question: Which amyloid nucleation score does the source give for GISSKFRSPNRGNCYYRDIL here?
Answer: inactive

Question: For GISYNSV, which amyloid nucleation score is on record?
Answer: inactive

Question: For GIVALCRTCDNRRMRVSVGV, which amyloid nucleation score is on record?
Answer: inactive

Question: With GIYVVLNCISIFRLWLLSER as the substance, how does the amyloid nucleation score read?
Answer: inactive

Question: Which amyloid nucleation score does the source give for GKFFMVSRYCESSSLRFESM here?
Answer: 1.15 ± 0.17

Question: For GKIAVS, which amyloid nucleation score is on record?
Answer: inactive

Question: With GKINLVTCFVCLSTPFKHSL as the substance, how does the amyloid nucleation score read?
Answer: 1.74 ± 0.067

Question: Which amyloid nucleation score does the source give for GKRNEWN here?
Answer: inactive

Question: With GKSRFRLRDAWWRLVTQQRR as the substance, how does the amyloid nucleation score read?
Answer: inactive
